According to patent publication US20190135876A1 (TRELLIS BIOSCIENCE, published 2019):

T1: CX3CR1 (human, UniProt P49238 1-355)
T1 sequence: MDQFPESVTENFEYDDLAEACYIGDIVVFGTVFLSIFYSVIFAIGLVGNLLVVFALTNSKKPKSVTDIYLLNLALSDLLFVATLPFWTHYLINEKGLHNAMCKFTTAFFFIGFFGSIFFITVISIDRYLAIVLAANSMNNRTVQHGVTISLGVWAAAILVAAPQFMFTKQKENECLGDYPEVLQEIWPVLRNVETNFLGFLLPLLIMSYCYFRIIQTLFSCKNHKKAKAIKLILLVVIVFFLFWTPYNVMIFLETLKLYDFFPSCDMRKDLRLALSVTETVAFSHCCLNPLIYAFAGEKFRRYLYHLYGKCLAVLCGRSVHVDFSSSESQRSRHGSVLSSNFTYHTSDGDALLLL

T2: RSV G[169-198] (respiratory syncytial virus)
T2 construct: also called synthetic RSV G peptide
T2 peptide: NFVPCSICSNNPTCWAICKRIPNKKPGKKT

B1: RSV G[161-197] (peptide)
peptide: MGNDFHFEVFNFVPCSICSNNPTCWAICKRIPNKKPGKKHHHHHH

What was measured:
CX3CR1 (human) = CX3CR1 (human) (UniProt P49238); assay: cell-based or functional assay; conditions: scale: chemotactic index
CX3CR1 [1] = target: T1, CX3CR1; assay: cell-based or functional assay
RSV G[169-198] = target: T2, RSV G[169-198]; assay: complex formation and X-ray crystal structure
Source text: Diffraction data from a single crystal were processed with HKL2000.

CX3CR1 [2] = target: T1, CX3CR1; assay: cell-based or functional assay; remark: listed apart in the source
RSV G[161-197] = target: B1; assay: cell-based or functional assay

Molecule	Chemotactic activity (THP-1 chemotaxis assay, duplicate assays, standard deviation in parentheses) (CX3CR1 [2])	other results
anti-CX3CR1 rabbit polyclonal antibody (ThermoFisher Scientific Cat# PAS-19910)		chemotactic index of THP-1 cells pre-incubated with anti-CX3CR1 antibody, toward 5 nM RSV G[161-197] (CX3CR1 (human)): 1.1
RSV G ectodomain (G[ecto]) (other) SANHKVTPTTAIIQDATSQIKNTTPTYLTQNPQLGISPSNPSEITSQITTILASTTPGVKSTLQSTTVKTKNTTTTQTQPSKPTTKQRQNKPPSKPNNDFHFEVFNFVPCSICSNNPTCWAICKRIPNKKPGKKTTTKPTKKPTLKTTKKDPKPQTTKSKEVPTTKPTEEPTINTTKTNIITTLLTSNTTGNPELTSQMETFHSTSSEGNPSPSQVSTTSEYPSQPSSPPNTPRQHHHHHHGWSHPQFEKGGGSGGGSGGGSWSHPQFEK		chemotactic index of THP-1 cells toward 5 nM RSV G[ecto] (CX3CR1 [1]): 3.9 chemotactic index (fold over serum-free media)
scFv 2D10 (scFv, Expressed in Drosophila S2 cells with BiP signal; Twin-Strep tag removed with thrombin before use; A few vector residues probably remain at both ends (RS; ASLVPR); also called recombinant single-chain variable fragment (scFv) of 2D10) scFv: QVQLVQSGPEVKKPGASVRLSCKASGYVFTNYGVSWVRQAPGQGLEWMGWSSPYNGNTYYAQKLKARVTMTTDTSTNTAYMELRSLRSDDTAVYYCGRDMLGVVQAVAGPFDSWGQGTLVTVSSASGGGGSGGGGSGGGGSGGGDTPMTQSPSSVSASVGDRVTISCRASQGISNSLAWYQQKLGKAPQLLIYAASSLQSGVPSRFSGSGSGTDFTLTISSLQPEDFATYYCQQTNTFPFTFGPGTKVEVRR		binding result (RSV G[169-198]): binds
NDFHFEVFNFVPCSICWNNPTCWAICKRIPNKKPGKK [RSV G (CCR) variant S177→W]	1.2 chemotactic index (negative control PBS = 1.0)	
NDFHFKVFNFVPCSICSNNPTCWAICERIPNKKPGKK [RSV G (CCR) variant E166→K + K187 →E]	1.8 chemotactic index (negative control PBS = 1.0)	
NDFHFEVFNFVPCSICSNNPTCWAICKRIPNKKPGKK [Wild type RSV G (CCR)]	6.2 chemotactic index (negative control PBS = 1.0)	
NDFHFKVFNFVPCSICSNNPTCWAICKRIPNKKPGKK [RSV G (CCR) variant E166→K]	1.6 chemotactic index (negative control PBS = 1.0)	
NDFHFEVFNFVPCSICSNNPTCWAICKRIPNEEPGKK [RSV G (CCR) variant K192→E + K193 →E]	2.5 chemotactic index (negative control PBS = 1.0)	
NDFYFEVFNFVPCSICSNNPTCWAICKRIPNKKPGKK [RSV G (CCR) variant H164→Y]	3.8 chemotactic index (negative control PBS = 1.0)	
NDFHFEVFNFVPCSICRNNPTCWAICKRIPNKKPGKK [RSV G (CCR) variant S177→R]	0.9 chemotactic index (negative control PBS = 1.0)	
mAb 3D3 (antibody, V domains shown) VH: EEQLVESGGGLVQPGRSLRLSCVGSGLRFEEHAMHWVRQAPGRGLEWVSGISWNSGSVGYADSVKGRFTTSRDNAKDILFLEMNTLRSEDTALYFCAIMVATTKNDFHYYKDVWGKGTTVTVSS VL: QIVLTQSPATLSLSPGERATLSCRASQSVSNHLAWYQQKPGQAPRLLIYETSNRATGIPPRFSGSGSGTDFTLTISSLEPEDFAVYYCQQRNNWYTFGQGTKLEIK		chemotactic index of THP-1 cells toward 5 nM RSV G[161-197] pre-incubated with 25 nM mAb (RSV G[161-197]): 1.5 chemotactic index (fold over serum-free media)
B1		chemotactic index of THP-1 cells toward 5 nM RSV G[161-197] (CX3CR1 [1]): 4.2 chemotactic index (fold over serum-free media)
mAb 2D10 (antibody, V domains shown) VH: QVQLVQSGPEVKKPGASVRLSCKASGYVFTNYGVSWVRQAPGQGLEWMGWSSPYNGNTYYAQKLKARVTMTTDTSTNTAYMELRSLRSDDTAVYYCGRDMLGVVQAVAGPFDSWGQGTLVTVSS VL: DTPMTQSPSSVSASVGDRVTISCRASQGISNSLAWYQQKLGKAPQLLIYAASSLQSGVPSRFSGSGSGTDFTLTISSLQPEDFATYYCQQTNTFPFTFGPGTKVEVRR		chemotactic index of THP-1 cells toward 5 nM RSV G[161-197] pre-incubated with 25 nM mAb (RSV G[161-197]): 1 chemotactic index (fold over serum-free media)
